In test [1] the target is F-actin polymerised from purified G-actin (Cytoskeleton APHL99-A) (UniProt P60709). Description: co-sedimentation; supernatant-depletion method, equilibrium binding to ATP/ADP-Pi-F-actin (filaments from ATP-G-actin); GST-ABD left in the supernatant by anti-GST immunoblot and densitometry; room temperature. On the technique in general: In western blotting, separated proteins are transferred to a membrane and probed.

The target is the same in test [2]. The test is described as follows: co-sedimentation; high-speed F-actin co-sedimentation; F-actin polymerised from Mg-ATP-G-actin (50 mM KCl, 1 mM MgCl2, 1 mM ATP); 30 min at room temperature, Airfuge ~100,000 x g 30 min; supernatant and pellet on SDS-PAGE, Coomassie Blue or silver stain.
The target is the same in test [3]. Description: co-sedimentation; supernatant-depletion method, equilibrium binding to ADP-F-actin (filaments from ADP-G-actin made with 20 U/mL hexokinase and 1 mM glucose); GST-ABD left in the supernatant by anti-GST immunoblot and densitometry.

As usually defined, the Kd is the equilibrium constant for the complex coming apart. For orientation: stoichiometry N means a count of units in the complex or per binding partner. For “GST-TEM4 81-135 (GST-ABD) (from UniProt Q96PE2 81-135) (domain or fragment)”, the Kd in test [1] turned out to be 0.053 µM; in test [3], 4.7 µM. Moreover, the stoichiometry N in test [2] (scale: actin per GST-ABD) worked out at 1.4; in test [2] (scale: ratio GST-ABD to actin, after correction for the 15-20% GST cleavage product), 1.

These data come from article PMC3404065.
